Measured values published in article PMC8431534.

Biological target: Myc-tagged PTK7 (Xenopus protein tyrosine kinase 7, full length) (Xenopus)
Assay: co-IP; HEK293 cells co-transfected with Myc-tagged PTK7 and GFP-tagged constructs; immunoprecipitation with anti-Myc, Dynabeads Protein G, Western blot (Figure 5B)

quantity co-precipitated with full-length PTK7 in respect to input, densitometry, relative to PTK7 = 1 (relative to PTK7 = 1): 2.6
Substance: ΔkPTK7-GFP (Xenopus Ptk7 with the kinase domain deleted, GFP-tagged) (receptor)
